Data on four molecules can be found in patent publication US20170267766A1 (PIERRE FABRE MEDICAMENT, published 2017).

Assay [1] deals with T1, human IGF-1R (native, on cells) (human, UniProt P08069 31-1367). As to the kind of experiment: cell-based or functional assay.
Assay [2] addresses T2, rhIR protein (R&D Systems, cat No 1544-IR/CF) (human, UniProt P06213-2 28-944).
T2 construct: extracellular domain; bought; also called rh Insulin R; recombinant human Insulin Receptor
As to the kind of experiment: ELISA, coated rhIR 1 ug/ml. The procedure:
(§1) In addition three ELISA were performed (either before or after cloning) to study the binding of antibodies on the recombinant human (hIGF-1R) and murine (mIGF-1R) proteins, and on the recombinant human Insulin Receptor (hIR) protein. […] The plates were then blocked with PBS containing 0.5% gelatin (#22151, Serva Electrophoresis GmbH, Heidelberg, Germany) for 2 h at 37° C. Once the saturation buffer discarded by flicking plates, 100 μl of each supernatant dilution were added to the wells (either undiluted hybridoma supernatant either supernatant serial dilutions) and incubated for 1 h at 37° C. […] Then, ELISA plates were washed 3-times and the TMB (#UP664782, Uptima, Interchim, France) substrate is added. After a 10 min incubation time at room temperature, the reaction was stopped using 1 M sulfuric acid and the optical density at 450 nm is measured.
(In general: ELISA stands for enzyme-linked immunosorbent assay.)

Assay [3] deals with T3, monkey IGF-1R (on COS-7 cells) (African green monkey). Briefly: cell-based or functional assay.
The target of assay [4] is T1, human IGF-1R (native, on cells). Briefly: FACS, MCF7, 4°C, Ab 5 ug/ml. How it is done:
Additionally an internalization assay was performed in order to select only internalizing antibodies. For this assay, the MCF7 tumor cell line was cultured in RMPI 1640 without phenol red with 1% L-glutamine and 10% of […] for 3 days before experiment. Cells were then detached using trypsin and 100 μl of a cell suspension at 4·10⁵ cell/ml are plated in 96-multiwell plates in RPMI1640 without phenol red with 1% L-glutamine and 5% FBS. After a 2 min centrifugation at 2000 rpm, cells were resupended in 50 μl of hybridoma supernatant or control antibody solutions (positive and isotype controls at 1 μg/ml). After a 20 min incubation time at 4° C., cells were centrifuged 2 min at 2000 rpm and resuspended in either cold (4° C.) or warm (37° C.) complete culture medium. Cells were then incubated for 2 hours either at 37° C. or at 4° C. Then cells were washed three times with FACS buffer. An Alexa 488-labeled goat anti-mouse IgG antibody was incubated for 20 minutes and cells were washed three times before FACS analysis on propidium iodide negative cell population.

In assay [5] the target is T4, rmIGF-1R protein (R&D Systems, cat No 6630-GR/Fc) (murine, UniProt Q60751 31-936).
T4 construct: extracellular domain; bought; also called murine extracellular domain (ECD) of IGF-1R; not shown: Fc only implied by the catalogue number; not described
T4 sequence (Q60751 31-936): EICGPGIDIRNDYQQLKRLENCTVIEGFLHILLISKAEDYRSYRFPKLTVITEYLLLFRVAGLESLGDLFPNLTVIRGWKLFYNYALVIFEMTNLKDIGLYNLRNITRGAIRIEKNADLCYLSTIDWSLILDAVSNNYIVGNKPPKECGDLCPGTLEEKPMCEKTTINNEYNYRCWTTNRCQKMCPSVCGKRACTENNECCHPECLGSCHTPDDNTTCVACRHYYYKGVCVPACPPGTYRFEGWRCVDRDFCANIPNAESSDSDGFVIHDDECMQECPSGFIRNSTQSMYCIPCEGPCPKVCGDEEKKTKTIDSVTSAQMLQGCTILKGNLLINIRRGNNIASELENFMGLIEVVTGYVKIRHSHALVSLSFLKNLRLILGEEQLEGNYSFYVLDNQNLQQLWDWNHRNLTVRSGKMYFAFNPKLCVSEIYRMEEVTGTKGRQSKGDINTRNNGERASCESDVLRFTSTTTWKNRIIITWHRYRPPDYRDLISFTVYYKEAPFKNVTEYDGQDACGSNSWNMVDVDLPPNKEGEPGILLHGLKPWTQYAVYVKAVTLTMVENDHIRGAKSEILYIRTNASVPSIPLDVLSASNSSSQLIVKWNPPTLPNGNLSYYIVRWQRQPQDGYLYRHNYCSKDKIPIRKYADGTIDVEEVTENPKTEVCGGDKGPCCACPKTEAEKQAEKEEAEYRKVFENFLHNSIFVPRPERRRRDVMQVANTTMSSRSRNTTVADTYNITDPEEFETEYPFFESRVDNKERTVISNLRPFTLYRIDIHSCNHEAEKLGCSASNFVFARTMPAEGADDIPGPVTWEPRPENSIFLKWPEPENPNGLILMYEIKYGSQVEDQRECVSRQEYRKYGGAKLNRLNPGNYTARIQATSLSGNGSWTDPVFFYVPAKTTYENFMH
Briefly: ELISA, coated rmIGF-1R (Table 8). How it is done: as §1

Assay [6] deals with T1, human IGF-1R (native, on cells). Briefly: cell-based or functional assay. The source holds these as a separate data set.
For assay [7] the target is unchanged. As to the kind of experiment: FACS, Tf hIGF1R+ cells, Ab 5 ug/ml. A general note: In flow cytometry, cells or beads pass a laser one at a time.
The target of assay [8] is T4, rmIGF-1R protein (R&D Systems, cat No …). As to the kind of experiment: ELISA, coated rm IGF-1R, SNT 5 ug/ml. The procedure: as §1
Assay [9] has as its target T3, monkey IGF-1R (on COS-7 cells). As to the kind of experiment: FACS, Cos-7 (monkey IGF1R+), Ab 5 ug/ml.
In assay [10] the target is T5, human insulin receptor (on cells) (human, UniProt P06213 28-1382).
T5 construct: whole, on cells; on stably transfected cells or on IM9 cells; also called hIR; IR
Briefly: FACS on hIR+ transfected cells, 4°C. The procedure:
(§2) In order to verify the absence of binding of both murine and chimeric antibodies on hIR, a stable cell line expressing the human IR was used. The recognition of human cell surface hIR by both murine and chimeric Ab was performed by FACS analyses. Increasing concentrations of either the murine or the chimeric mAbs were incubated on the hIR′ transfected cell line for 20 minutes at 4° C. in FACS buffer (PBS, 0.1% BSA, 0.01% NaN₃). Cells were then washed 3 times and incubated with the appropriate secondary antibody coupled with Alexa 488 before being incubated for 20 additional minutes at 4° C. in the dark and then washed 3 times in FACS buffer. The binding of anti-IGF-1R antibodies was immediately performed on viable cells which were identified using propidium iodide (that stains dead cells). The binding EC₅₀ expressed in molarity (M) was calculated using a nonlinear regression analysis (GraphPad Prims 4.0). […] The c9G4 was introduced as an irrelevant antibody (isotype control).

For assay [11], the target named is T1, human IGF-1R (native, on cells). As to the kind of experiment: cell-based or functional assay. This is another data set of the same source.
Assay [12] has the same target. As to the kind of experiment: FACS on MCF-7 cells, 4°C; inset table, axis log [M]. How it is done: The binding properties of a series of anti-IGF-1R antibodies were evaluated by FACS analyses on the human MCF-7 breast adenocarcinoma cell line (ATCC#HTB-22) using increasing antibody concentrations. For that purpose, cells (1×10⁶ cells/ml) were incubated with anti-IGF-1R antibodies for 20 min. at 4° C. in FACS buffer (PBS, 0.1% BSA, 0.01% NaN₃). They were then washed 3 times and incubated with the appropriate secondary antibody coupled with Alexa 488 for 20 additional minutes at 4° C. in the dark before being washed 3 times in FACS buffer. The binding of anti-IGF-1R antibodies was immediately performed on viable cells which were identified using propidium iodide (that stains dead cells). The maximum of signal intensity obtained with each antibody was designed as Bₘₐₓ and expressed in mean of fluorescence intensity (MFI). The EC₅₀ of binding expressed in molarity (M) was calculated using a nonlinear regression analysis (GraphPad Prims 4.0).

The target in assay [13] is T3, monkey IGF-1R (on COS-7 cells). As to the kind of experiment: FACS on COS-7 cells, 4°C; inset table, axis log [M]. The procedure: In order to evaluate the binding of anti-IGF-1R antibodies on monkey IGF-1R, the binding of both murine and chimeric anti-hIGF-1R antibodies was evaluated by FACS analyses on COS-7 cell line using increasing antibody concentrations. Cells (1×10⁶ cells/ml) were incubated with anti-IGF-1R antibodies for 20 minutes at 4° C. in FACS buffer (PBS, 0.1% BSA, 0.01% NaN₃). Then, cells were washed 3 times and incubated with the appropriate secondary antibody coupled with Alexa 488 before being incubated for 20 additional minutes at 4° C. in the dark and finally washed 3 times in FACS buffer. The binding of anti-IGF-1R antibodies was immediately evaluated on viable cells identified using propidium iodide (that stains dead cells). The binding EC₅₀ expressed in molarity (M) was calculated using a nonlinear regression analysis (GraphPad Prims 4.0).

Assay [14] deals with T5, human insulin receptor (on cells). Briefly: FACS on IM-9 cells (express hIR), 4°C. How it is done: as §2
For this FACS analysis, the protocol was the same as the one described previously and murine anti-IGF-1R antibodies were used in order to prevent the cross reactivity of the secondary anti-human Ab (IM9 cells express human Ig on their cell surface).

A value given as a limit tells only on which side of the number the result lay.

B1: m212A11 (antibody, V domains shown)
VH: QVQLQQSGPELVKPGASVKMSCKASGYTFTSYYIHWVKQRPGQGLEWIGWIWPGDGSTKYNEKFKGKTTLTADKSSSTAYMFLSSLTSEDSAVYFCASPMITPNYAMDYWGQGASVTVSS
VL: DIQMTQTTSSLSASLGDRVTISCRASQDINKYLNWYQQQPDGTVKLLIYYTSRLHSGVPSRFSGRGSGTDYSLTISNLEQEDIATYFCQQGSTLPYTFGGGTKLEIK
notes: murine mAb, hybridoma CNCM I-4773, group G2
Consider B1, for which the “hIGF-1R phosphorylation in response to IGF-1 (western blot, MCF-7)” value (from here on “hIGF-1R phosphorylation in response”) in [1] is greater than 80%. Moreover, the results for the binding result in [2], in assay [5] and in assay [10] were “no binding”, “no binding” and “no binding (tested: log [M] about -6.5 (about 3e-7 M))”, respectively. Moreover, the “% internalisation” value in assay [3] was 73%. The molecule further displayed a ΔMFI in assay [3] of 83 MFI. Also, the “MFI 4°C” value in [4] came out at 390 MFI. In addition, the “HalfLife (decay of cell-surface bound antibody on MCF-7 at 37°C)” value in assay [6] was 14.3 min (unit from p-0380; none on the sheet). The MFI in assay [7] turned out to be 2190 MFI; in [9] it was 125 MFI. Further, the “D.O 450 nm” value in [8] is 0.102 D.O 450 nm.

B2: m219D6 (antibody, V domains shown)
VH: QVQLQQSGPELVKPGDSVKMSCKASGYSFTSYFIHWVKQRPGQGLEWIGWIWPGDGSTKYNEKFKGKTTLTTDKSSSTAYMFLNSLTSEDSAVYFCASPMITPNYAMDYWGQGASVTVSS
VL: DIQMTQTTSSLSASLGDRVTISCRASQDISKYLNWYQQQPDGTVKLLIYYTSRLHSGVPSRFSGRGSGTDYSLTISNLEQEDIATYFCQQGSTLPYTFGGGTKLEIK
notes: murine mAb, hybridoma CNCM I-4736, group G2
Take B2: the “hIGF-1R phosphorylation in response” value in [1] was greater than 80%. The binding result in [2] is “no binding”; in [5], “no binding”; in assay [10], “no binding (tested: log [M] about -6.5 (about 3e-7 M))”. The “% internalisation” value in [3] is 71%. In addition, the ΔMFI in assay [3] amounted to 80 MFI. For the same molecule, the “MFI 4°C” value in [4] stood at 349 MFI. Also, the “HalfLife (decay of cell-surface bound antibody on MCF-7 at 37°C)” value in [6] is 17.9 min (unit from p-0380; none on the sheet). In addition, the MFI in assay [7] amounted to 2110 MFI; in assay [9] it was 114 MFI. The “D.O 450 nm” value in assay [8] turned out to be 0.112 D.O 450 nm.

B3: m208F2 (antibody, V domains shown)
VH: QVQLQQSGPELVKPGASVKMSCKASGYTFTSYYIYWVKQRPGQGLEWLGWIWPGDGSTKYNEKFKDKTTLTADKSSNTAYMFLSSLTSEDSAVYFCASPMITPNYAMDYWGQGASVTVSS
VL: DIQMTQTTSSLSASLGDRVTISCRASQDISKYLNWYQQQPDGTIKLLIYYTSRLHSGVPSRFSGRGSGTDYSLTISNVEQEDIATYFCQQGSTLPYTFGGGTKLEIK
notes: murine mAb, hybridoma CNCM I-4757, group G2; also called murine 208F2
For the molecule B3, the “hIGF-1R phosphorylation in response” value in assay [1] is greater than 80%. The binding result in assay [2] was “no binding”; in assay [5] it was “no binding”; in [10], “no binding (tested: log [M] about -6.5 (about 3e-7 M))”. In addition, the “% remaining rh IGF1R” value in assay [11] was found to be 27%. In addition, the “MFI 37°C (internalisation assay, MCF7)” value in [11] was 94 MFI. Further, the “Δ (MFI 4°C - MFI 37°C)” value in assay [11] is 261 MFI. Moreover, the “% internalisation” value in [3] worked out at 74%. In assay [3], this molecule registered a ΔMFI of 53 MFI. Besides, in assay [4], the “MFI 4°C” value turned out to be 355 MFI. Further, the “HalfLife (decay of cell-surface bound antibody on MCF-7 at 37°C)” value in [6] is 11.1 min (unit from p-0380; none on the sheet). In assay [7], this molecule registered an MFI of 2200 MFI. Besides, the “D.O 450 nm” value in assay [8] was 0.099 D.O 450 nm. Further, the values for the EC50 in assay [12] and in [13] were 526 pM and 758 pM, respectively.

B4: m213B10 (antibody, V domains shown)
VH: QVQLQQSGSELVKPGASVKMSCKASGYTFTSYYIHWVKQRPGQGLEWIGWIWPGDGSTKYNERFKGKTTLTADKSSSTAYMFLSSLTSEDSAVYFCASPMITPNYAMDYWGQGASVTVSS
VL: DIQMTQTTSSLSASLGDRVTISCRASQDISKYLNWYQQQPDGTIKLLIYYTSRLHSGVPSRFSGRGSGTDYSLTITNLEQEDIATYFCQQGSALPYTFGGGTKLEIK
notes: murine mAb, hybridoma CNCM I-4774, group G2
Consider B4, for which, in assay [1], the “hIGF-1R phosphorylation in response” value is greater than 80%. Moreover, the results for the binding result in assay [2], in assay [5] and in assay [14] were “no binding”, “no binding” and “no binding (tested: log [M] about -6.5 (about 3e-7 M))”, respectively. Besides, the “% remaining rh IGF1R” value in assay [11] stood at 30%. The “MFI 37°C (internalisation assay, MCF7)” value in assay [11] amounted to 115 MFI. Further, the “Δ (MFI 4°C - MFI 37°C)” value in [11] is 271 MFI. In [3], the “% internalisation” value worked out at 74%. Besides, in assay [3], the ΔMFI came out at 84 MFI. The “MFI 4°C” value in [4] was 386 MFI. The “HalfLife (decay of cell-surface bound antibody on MCF-7 at 37°C)” value in [6] was 12.8 min (unit from p-0380; none on the sheet). The MFI in [7] was found to be 2060 MFI; in assay [9], 122 MFI. Besides, the “D.O 450 nm” value in assay [8] was 0.127 D.O 450 nm.

By EC50 is commonly meant the concentration that produces a half-maximal response.
